Values of other authors in article doi:10.1101/2023.01.28.526057v3 (bioRxiv, 2023).

Settings: rat modeling parameter, Table S7, column PBS

liraglutide
t1/2 in SC: 57.02 s
